Several values for one entry are separate records, joined by “and”; a condition that tells them apart may be missing. Equal entries are not always repeated.

What all share (format): biochemical, human
In data set [1] the test system is T1, CC(=O)N[C@@H](CCC(=O)O)C(=O)N[C@@H](C)C(=O)N[C@@H](CC(C)C)C(=O)N1CCC[C@H]1C(=O)N[C@@H](CCCCN)C(=O)N[C@@H](CCCCNC(=O)CCCCCCCCCCNC(=O)c1ccccc1N)C(=O)N[C@@H](Cc1ccc(O)c([N+](=O)[O-])c1)C(=O)NCC(=O)NCC(N)=O.
T1 construct: His-tag; made in house; host or cells: E. coli BL21 DE3
Description: Continuous fluorescence assay, substrate kinetics. To be noted: other: Sirt6 500 nM; fluorescence spectrophotometer (footnote a); 37.0 °C. Here is the method:
The fluorescence measurements were performed on a Hitachi F-4500 fluorescence spectrophotometer (Tokyo, Japan) at λEx = 310 nm and λEm = 405 nm (slitEx = 5 nm, slitEm = 2.5 nm, PMT = 700 V for 3, 4 and 5 as well as slitEx = 10 nm, slitEm = 10 nm, PMT = 950 V for 4a). Each reaction mixture contained assay-buffer, 0.5 mM NAD^+ and various peptide concentrations (0.1–100 μM) and was preincubated for 5 minutes at 37 °C. The reaction was started by adding human sirtuin (0.1–0.5 μM) and observed for 5–10 minutes. Product formation could be monitored by increase of relative fluorescence. This signal was converted into product concentration via calibration lines. […] The reaction mixture was analyzed with HPLC, to control if the entire peptide substrate was turned to product. Additionally the mixture was diluted (0.1–25 μM) and measured with Hitachi F-4500 fluorescence spectrophotometer at the same conditions as described above.
The microtiter plate fluorescence measurements were performed on a Tecan Infinite M200 microplate reader (Maennedorf, Switzerland) at λEx = 320 nm and λEm = 408 nm (lag time 9 μs, integration time […], gain 160, 170 or 182). The reactions (total volume 100 μl) were measured in black low-binding 96-well microtiter plates (NUNC). […] The reaction mixture for the calibration lines was prepared as described for the single fluorescence measurements. […]

The test system is the same in data set [2]. Nature of the data set: HPLC based activity assay. To be noted: other: HPLC; Sirt6 0.5 µM; pH 7.8; 37.0 °C. On the procedure: (§1) For the determination of kinetic constants for all sirtuin mediated reactions solutions containing 20 mM TRIS/HCl pH 7.8, 150 mM NaCl, 5 mM MgCl2 (assay-buffer), 500 μM NAD^+ and varying substrate concentrations (0.5–100 μM) were used. Deacylation was started by adding human sirtuin to reach a final concentration of 0.01–0.5 μM. Enzyme-catalyzed reaction was stopped using TFA (1% final concentration) after 1 min to 180 min of incubation at 37 °C depending on substrate reactivity. The cleavage rate of the different TNFα peptide derivatives was analyzed using analytical reversed phase HPLC. 40 to 80 μl of compounds or reaction solutions were injected and separated using a linear gradient from 5% to 95% solvent B within 6min. The product and substrate peaks were quantified using absorbance at 220 nm or 365 nm (absorption of 3-Nitrotyrosyl moiety). The peak areas were integrated and converted to initial velocity rates calculated from the ratio of product area to total peak area. Linear regression of conversions plotted against time yielded reaction rates in μM/min (relative conversion below 20% of substrate). Non-linear regression according to Michaelis-Menten of the reaction rates at different substrate concentrations yielded KM- and kcat-values using the program SigmaPlot 8 (Systat Software, San Jose, USA). All measurements were done in duplicates. […]

Data set [3] concerns T2, CCCCCCCCCCCCCC(=O)NCCCC[C@H](NC(=O)[C@H](CCCCN)NC(=O)[C@@H]1CCCN1C(=O)[C@H](CC(C)C)NC(=O)[C@H](C)NC(=O)[C@H](CCC(=O)O)NC(C)=O)C(=O)N[C@@H](Cc1ccc(O)c([N+](=O)[O-])c1)C(=O)NCC(=O)NCC(N)=O.
T2 construct: His-tag; made in house; host or cells: E. coli BL21 DE3
Description: HPLC based activity assay. To be noted: other: HPLC; Sirt6 0.5 µM; pH 7.8; 37.0 °C. Here is the method: as §1

The test system of data set [4] is T3, CCCCCCCCCCCCCC(=O)NCCCC[C@H](NC(=O)[C@H](CCCCN)NC(=O)[C@@H]1CCCN1C(=O)[C@H](CC(C)C)NC(=O)[C@H](C)NC(=O)[C@H](CCC(=O)O)NC(C)=O)C(=O)N[C@H](C(=O)NCC(=O)NCC(N)=O)[C@@H](C)O.
T3 construct: His-tag; made in house; host or cells: E. coli BL21 DE3
Nature of the data set: HPLC based activity assay. As to conditions: other: HPLC; Sirt6 0.5 µM; pH 7.8; 37.0 °C. Here is the method: as §1

For the substance Sirt6 (Homo sapiens), the Michaelis constant (Km) in data set [1] was 23.5 ± 4.9 µM; in data set [2] it was 18.3 ± 4.4 µM; in data set [3], 17 µM and 17.3 ± 2.6 µM; in data set [4] it was 6 µM and 5.7 ± 1.3 µM. Also, the kcat/Km in data set [1] was 39 M⁻¹ s⁻¹; in data set [2], 45.00 M⁻¹ s⁻¹; in data set [3], 2.81∙10^2 M^-1s^-1; in data set [4], 8.25∙10^2 M^-1s^-1. For the same substance, the kcat in data set [2] is recorded as 8.3∙10^-4 ± 0.7∙10^-4 s^-1; in data set [3] it was 4.9∙10^-3 ± 0.2∙10^-3 s^-1; in data set [4], 4.7∙10^-3 ± 0.3∙10^-3 s^-1.

In general, Km refers to the concentration of substrate that gives half-maximal velocity. What is called kcat/Km is the second-order rate constant that governs catalysis at low substrate concentration.

These data come from paper PMC4778124, “A continuous sirtuin activity assay without any coupling to enzymatic or chemical reactions” (Scientific Reports, 2016).
